{"source": "paper PMC11445749", "about": "“Structural bases for blockade and activation of BK channels by Ba^2+ ions” (Frontiers in Molecular Biosciences, 2024)", "proteins": {"B1": {"name": "Aplysia californica Slo1 BK channel (natural protein)", "chain": "not shown", "notes": "Homotetramer in lipid nanodiscs (scaffold MSP1E3D1); also called Aplysia Slo1; Aplysia BK channel; not shown: GFP, C-terminal, cleaved; rho-1D4, C-terminal, cleaved"}}, "target": "the molecule itself", "experiment": "cryo-EM structure; Slo1 tetramers in lipid nanodiscs (MSP1E3D1); two samples: Low-Barium (~1.4 mM Ba2+, PDB 7RK6) and High-Barium (10 mM Ba2+ throughout purification, PDB 7RJT); Titan Krios, K2 detector", "data": [{"protein": "B1", "values": [{"measurement": "stoichiometry N", "result": 4}]}]}
